Measurements taken from article doi:10.1101/2022.10.18.512691.

Columns and labels:
[1] = target: APS-kinase from Methanothermococcus thermolithotrophicus (Methanothermococcus thermolithotrophicus); assay: crystal structure
[2] = target: ATP-sulfurylase from Methanothermococcus thermolithotrophicus (Methanothermococcus thermolithotrophicus); assay: SEC
[3] = target: ATP-sulfurylase from Methanothermococcus thermolithotrophicus (Methanothermococcus thermolithotrophicus); assay: crystal structure

Row | Substance | stoichiometry N [1] | stoichiometry N [2] | stoichiometry N [3]
1 | APS-kinase from Methanothermococcus thermolithotrophicus (enzyme) | 2 |  | 
2 | ATP-sulfurylase from Methanothermococcus thermolithotrophicus (enzyme) |  | 2 | 2
